Assay results: publication PMC1784095

Experiments:
[1] = biological target: T1, ArgR (Escherichia coli K-12 W3110) (UniProt P0A6D0); assay: EMSA; conditions: Crp EMSA: 10 mM Tris-HCl pH 8.0, 50 mM KCl, 1 mM EDTA, 0.1 mM DTT, 50 ug/ml BSA, 10 ug/ml poly(dI-dC), 12.5% glycerol, cAMP (20 uM in Results, 20 mM in Methods …)
T1 sequence: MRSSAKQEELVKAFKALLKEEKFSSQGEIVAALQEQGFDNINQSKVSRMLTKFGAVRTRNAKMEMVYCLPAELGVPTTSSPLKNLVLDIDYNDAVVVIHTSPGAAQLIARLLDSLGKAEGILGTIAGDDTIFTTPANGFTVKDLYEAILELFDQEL

[2] = system: Crp (Escherichia coli K-12 W3110); assay: EMSA; conditions: 20 uM cAMP; apparent Kd; Crp EMSA: 10 mM Tris-HCl pH 8.0, 50 mM KCl, 1 mM EDTA, 0.1 mM DTT, 50 ug/ml BSA, 10 ug/ml poly(dI-dC), 12.5% glycerol, cAMP (20 uM in Results, 20 mM in Methods …)

Row | Substance | Kd [1] [nM] | Kd ([1]; 5 mM L-arginine, apparent Kd, Hill 2.0) [nM] | Kd [2] [nM]
1 | AATTCGGCGATGACCTGGATCAATCGTCCCGGCCTGCTTTTATCAACTGCATAATCAATCAAAATTACCGAAATTTCATGCATAATCACATAAATCACTTTTGCTTATCTTGTGTCAGATTTTTTTATCTCCTGATGGATTTTAGGCAAAAACAGTAGCATGAAACGTCATTACCAATTAAGGCAGTATAAAATGCTGGTTTTGTCGTCAGTTCAAGGCAGGATAAGGGTTAACACACCTTTATGACAGTCAGGAATTGACTGTTTCTCTAACGACTTC (double strand) [PgltB -406 to -128] | 1.7 |  | 
2 | PgltB -406 to +246 |  | 1.8 | 35
